B1: carboxypeptidase A: carboxypeptidase A (manufactured by Wako Pure Chemical Industries, Ltd.) (protein, UniProt P00730 111-419, looked up)
Carboxypeptidase A1: ARSTNTFNYATYHTLDEIYDFMDLLVAEHPQLVSKLQIGRSYEGRPIYVLKFSTGGSNRPAIWIDLGIHSREWITQATGVWFAKKFTEDYGQDPSFTAILDSMDIFLEIVTNPDGFAFTHSQNRLWRKTRSVTSSSLCVGVDANRNWDAGFGKAGASSSPCSETYHGKYANSEVEVKSIVDFVKDHGNFKAFLSIHSYSQLLLYPYGYTTQSIPDKTELNQVAKSAVEALKSLYGTSYKYGSIITTIYQASGGSIDWSYNQGIKYSFTFELRDTGRYGFLLPASQIIPTAQETWLGVLTIMEHTLNNLY
B2: protease type VIII: protease (type VIII Subtilisin Carlsberg: manufactured by Sigma-Aldrich Corp.) (protein, UniProt P00780 106-379, looked up)
Subtilisin Carlsberg: AQTVPYGIPLIKADKVQAQGFKGANVKVAVLDTGIQASHPDLNVVGGASFVAGEAYNTDGNGHGTHVAGTVAALDNTTGVLGVAPSVSLYAVKVLNSSGSGSYSGIVSGIEWATTNGMDVINMSLGGASGSTAMKQAVDNAYAKGVVVVAAAGNSGSSGNTNTIGYPAKYDSVIAVGAVDSNSNRASFSSVGAELEVMAPGAGVYSTYPTNTYATLNGTSMASPHVAGAAALILSKHPNLSASQVRNRLSSTATYLGSSFYYGKGLINVEAAAQ
B3: proteinase K: Proteinase K (manufactured by Wako Pure Chemical Industries, Ltd.) (protein, UniProt P06873 106-384, looked up)
Proteinase K: AAQTNAPWGLARISSTSPGTSTYYYDESAGQGSCVYVIDTGIEASHPEFEGRAQMVKTYYYSSRDGNGHGTHCAGTVGSRTYGVAKKTQLFGVKVLDDNGSGQYSTIIAGMDFVASDKNNRNCPKGVVASLSLGGGYSSSVNSAAARLQSSGVMVAVAAGNNNADARNYSPASEPSVCTVGASDRYDRRSSFSNYGSVLDIFGPGTSILSTWIGGSTRSISGTSMATPHVAGLAAYLMTLGKTTAASACRYIADTANKGDLSNIPFGTVNLLAYNNYQA
B4: thermolysin: thermolysin (manufactured by Wako Pure Chemical Industries, Ltd.) (protein, UniProt P00800 233-548, looked up)
Thermolysin: ITGTSTVGVGRGVLGDQKNINTTYSTYYYLQDNTRGNGIFTYDAKYRTTLPGSLWADADNQFFASYDAPAVDAHYYAGVTYDYYKNVHNRLSYDGNNAAIRSSVHYSQGYNNAFWNGSQMVYGDGDGQTFIPLSGGIDVVAHELTHAVTDYTAGLIYQNESGAINEAISDIFGTLVEFYANKNPDWEIGEDVYTPGISGDSLRSMSDPAKYGDPDHYSKRYTGTQDNGGVHINSGIINKAAYLISQGGTHYGVSVVGIGRDKLGKIFYRALTQYLTPTSNFSQLRAAAVQSATDLYGSTSQEVASVKQAFDAVGVK
B5: carboxypeptidase B: carboxypeptidase B (manufactured by Sigma-Aldrich Corp.) (protein, UniProt P09955 111-416, looked up)
Carboxypeptidase B: TTGHSYEKYNNWETIEAWTKQVTSENPDLISRTAIGTTFLGNNIYLLKVGKPGPNKPAIFMDCGFHAREWISHAFCQWFVREAVLTYGYESHMTEFLNKLDFYVLPVLNIDGYIYTWTKNRMWRKTRSTNAGTTCIGTDPNRNFDAGWCTTGASTDPCDETYCGSAAESEKETKALADFIRNNLSSIKAYLTIHSYSQMILYPYSYDYKLPENNAELNNLAKAAVKELATLYGTKYTYGPGATTIYPAAGGSDDWAYDQGIKYSFTFELRDKGRYGFILPESQIQATCEETMLAIKYVTNYVLGHL

A short description of one test: Screening of protease for hemoglobin A1c determination (pH 7.5). In kind it is biochemical. Particulars: pH 7.5, 37° C. 60 minutes; 550 nm, reference 595 nm; FOD923 developing solution. The procedure: (§1) A screening method is shown in which a protease that cleaves a glycated peptide from N-terminal-glycated pentapeptide of a hemoglobin β-chain without substantially cleaving a glycated amino acid or glycated peptide from N-terminal-glycated pentapeptide of a hemoglobin α-chain. Each 10 μl of a sample for screening was placed in 3 wells of a 96-well plate, respectively. Then, the first well was supplemented with 50 μl of an α-solution, the second well was supplemented with 50 μl of a β-solution, and the third well was supplemented with 50 μl of a control solution. After the plate was incubated at 37° C. for 60 minutes, 50 μl of distilled water and 50 μl of a developing solution were added, and the whole was left at room temperature for 30 minutes. Then, the absorbance at a measuring wavelength of 550 nm and a reference wavelength of 595 nm were determined using a Microplate Reader (model 550, manufactured by Bio-Rad), to select a sample having a difference in the absorbance between the β-solution-supplemented well and the control solution-supplemented well larger than a difference in the absorbance between the α-solution-supplemented well and the control solution-supplemented well. Thus the protease of object was screened. The samples to be used include: carboxypeptidase B (manufactured by Sigma-Aldrich Corp.); carboxypeptidase W (manufactured by Wako Pure Chemical Industries, Ltd.); carboxypeptidase Y (manufactured by Oriental Yeast Co., Ltd.); protease (type XXVII nagase: manufactured by Sigma-Aldrich Corp.); protease (type VIII Subtilisin Carlsberg: manufactured by Sigma-Aldrich Corp.); protease (type XXIV Bacterial: manufactured by Sigma-Aldrich Corp.); Proteinase K (manufactured by Wako Pure Chemical Industries, Ltd.); neutral proteinase (manufactured by Toyobo Co., Ltd.); carboxypeptidase A (manufactured by Wako Pure Chemical Industries, Ltd.); thermolysin (manufactured by Wako Pure Chemical Industries, Ltd.); and distilled water. To confirm a degree of color development caused by a developing solution, 10 μl of 1 mM FVH (manufactured by Peptide Institute Inc.) and 1 mM FVL (manufactured by Peptide Institute Inc.) were placed in a well severally, followed by adding 50 μl of the control solution. The whole was incubated at 37° C. for 60 minutes. Then, 50 μl of distilled water and 50 μl of the developing solution were added and the whole was left at room temperature for 30 minutes, followed by the determination in a similar manner as described above.
(§2) 0.2 mM α-Glycated pentapeptide (manufactured by Peptide Institute Inc.)
(§3) 0.09% 4-Aminoantipyrine (manufactured by Wako Pure Chemical Industries, Ltd.)
(§4) 0.06% TODB (manufactured by Dojindo Laboratories)
(§5) 15 U/ml Peroxidase (manufactured by Sigma-Aldrich Corp.)
(§6) Various bacteria were cultured with shaking in Difco Lactobacilli MRS Broth (manufactured by Becton, Dickinson and Company), a MM medium (2.5% mannose, 2.5% beer yeast extract, pH7.0), and a YPG medium (2% glucose, 1% polypeptone, 2% yeast extract, 0.1% potassium dihydrogen phosphate, 0.05% magnesium sulfate heptahydrate, pH 7.0) at a temperature of from 28 to 30° C. for 1 to 7 days. Then, cells were removed by centrifugation from the culture solutions to obtain culture supernatants. A sample was prepared by diluting the obtained culture supernatants 10-fold with a 10 mM potassium phosphate buffer (pH7.5), and the determination was performed in a similar manner as Example 1.
For B1, the “α-Solution (absorbance, RAW DATA)” value is on record as 0.022.
Still for that read-out and setting: with B2 the figure was 0.023; with B3, 0.031; with B4, 0.053.
Same read-out and setting: with B5 the figure was 0.036.

The nature of another test: Screening of protease for hemoglobin A1c determination (pH 3.5). In kind it is biochemical. Particulars: pH 3.5, 37° C. 60 minutes; 550 nm, reference 595 nm; FOD923 developing solution. The procedure: (§7) A screening method is shown in which a protease that cleaves a glycated peptide from N-terminal-glycated pentapeptide of a hemoglobin β-chain without substantially cleaving a glycated amino acid or glycated peptide from N-terminal-glycated pentapeptide of a hemoglobin α-chain. Each 10 μl of a sample for screening was placed in 3 wells of a 96-well plate, respectively. Then, the first well was supplemented with 50 μl of an α-solution, the second well was supplemented with 50 μl of a β-solution, and the third well was supplemented with 50 μl of a control solution. After the plate was incubated at 37° C. for 60 minutes, 50 μl of pH-regulating solution and 50 μl of a developing solution were added, and the whole was left at room temperature for 30 minutes. Then, the absorbance at a measuring wavelength of 550 nm and a reference wavelength of 595 nm were determined using a Microplate Reader (model 550, manufactured by Bio-Rad), to select a sample having a difference in the absorbance between the β-solution-supplemented well and the control solution-supplemented well larger than a difference in the absorbance between the α-solution-supplemented well and the control solution-supplemented well. Thus the protease of object was screened. The samples to be used include: carboxypeptidase B (manufactured by Sigma-Aldrich Corp.); carboxypeptidase W (manufactured by Wako Pure Chemical Industries, Ltd.); carboxypeptidase Y (manufactured by Oriental Yeast Co., Ltd.); protease (type XXVII nagase: manufactured by Sigma-Aldrich Corp.); protease (type VIII Subtilisin Carlsberg: manufactured by Sigma-Aldrich Corp.); protease (type XXIV Bacterial: manufactured by Sigma-Aldrich Corp.); Proteinase K (manufactured by Wako Pure Chemical Industries, Ltd.); neutral proteinase (manufactured by Toyobo Co., Ltd.); and distilled water. To confirm a degree of color development caused by a developing solution, 10 μl of 1 mM FVH (manufactured by Peptide Institute Inc.) and 1 mM FVL (manufactured by Peptide Institute Inc.) were placed in a well severally, followed by adding 50 μl of the control solution. The whole was incubated at 37° C. for 60 minutes. Then, 50 μl of a pH-regulating solution and 50 μl of the developing solution were added and the whole was left at room temperature for 30 minutes, followed by the determination in a similar manner as described above.
(§8) 50 mM Acetate-sodium acetate (pH3.5)
as §2
(§9) 0.09% 4-aminoantipyrine (manufactured by Wako Pure Chemical Industries, Ltd.)
as §4, §5
Turning to B2, the “α-Solution (absorbance, RAW DATA)” value was 0.019.
Turning to B3, the “α-Solution (absorbance, RAW DATA)” value was 0.024.
With B5, the “α-Solution (absorbance, RAW DATA)” value was found to be 0.063.

The nature of a further test: Screening of protease (pH 7.5), control solution without substrate. It counts as biochemical. Particulars: pH 7.5, no substrate; 550 nm, reference 595 nm. The procedure: as §1, §3, §4, §5, §6
As for B1, the “control solution (absorbance, RAW DATA)” value is 0.018.
The same measure, in the same setting: with B2 the figure was 0.012; with B3, 0.017; with B4, 0.055.
Same read-out and setting: with B5 the figure was 0.028.

A short description of a further test: Screening of protease for hemoglobin A1c determination (pH 3.5). In kind it is biochemical. Particulars: pH 3.5. The procedure:
as §7, §8
(§10) 0.2 mM β-Glycated pentapeptide (manufactured by Peptide Institute Inc.)
as §9, §4, §5
Consider B5, for which the “specificity for β-chain over α-chain N-terminal glycated pentapeptide” value is on record as “cleaves a glycated peptide from an N-terminal glycated pentapeptide of a hemoglobin β-chain without substantially cleaving”.

The same test, now with this note: pH 3.5, 37° C. 60 minutes; 550 nm, reference 595 nm; FOD923 developing solution.
Regarding B2, the “β-Solution (absorbance, RAW DATA)” value was 0.018.
The same measure, in the same setting: with B3 the figure was 0.026.
As to B5, the “β-Solution (absorbance, RAW DATA)” value worked out at 0.147.

A further test in a line: Screening of protease for hemoglobin A1c determination (pH 7.5). In kind it is biochemical. Particulars: pH 7.5. The procedure: as §1, §10, §3, §4, §5, §6
B4: the “specificity for β-chain over α-chain N-terminal glycated pentapeptide” value was “cleave a glycated peptide from an N-terminal glycated pentapeptide of a hemoglobin β-chain without substantially cleaving”.
B5: the “specificity for β-chain over α-chain N-terminal glycated pentapeptide” value is “cleave a glycated peptide from an N-terminal glycated pentapeptide of a hemoglobin β-chain without substantially cleaving”.

Staying with this test, now noted: pH 7.5, 37° C. 60 minutes; 550 nm, reference 595 nm; FOD923 developing solution.
Consider B1, for which the “β-Solution (absorbance, RAW DATA)” value is on record as 0.145.
Still for that read-out and setting: with B2 the figure was 0.020; with B3, 0.077; with B4, 0.249.
Still for that read-out and setting: with B5 the figure was 0.127.

The next test in a line: Screening of protease (pH 3.5), control solution without substrate. It counts as biochemical. Particulars: pH 3.5, no substrate; 550 nm, reference 595 nm. Here is the method:
as §7, §8, §9, §4, §5
Turning to B2, the “control solution (absorbance, RAW DATA)” value was determined as 0.016.
Regarding B3, the “control solution (absorbance, RAW DATA)” value is 0.023.
The same measure, in the same setting: with B5 the figure was 0.060.

Values taken from US7943337B2, “Method for screening a protease” (Asahi Kasei Pharma Corporation, priority 2003, dated 2011).
